Legend:
[1] = target: T1, Trop-2 (human, UniProt P09758 27-323); assay: flow cytometry on A431 cells (MFI)
T1 construct: whole, on cells; also called Trop-2 on A431, HeLa, BxPC-3, SiHa and Capan-2 cells
T1 sequence (looked up): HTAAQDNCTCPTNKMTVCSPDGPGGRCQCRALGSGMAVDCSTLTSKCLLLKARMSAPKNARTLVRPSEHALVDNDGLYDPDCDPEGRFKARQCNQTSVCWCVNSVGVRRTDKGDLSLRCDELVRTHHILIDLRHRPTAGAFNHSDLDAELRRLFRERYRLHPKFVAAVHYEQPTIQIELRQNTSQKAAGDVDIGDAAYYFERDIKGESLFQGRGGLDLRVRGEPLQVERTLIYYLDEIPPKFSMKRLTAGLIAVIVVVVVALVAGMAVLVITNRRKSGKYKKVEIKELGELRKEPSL

[2] = target: T1, Trop-2; assay: flow cytometry on HeLa cells, AF647 goat anti-human secondary, 4PL fit; curve plateaus at about 145,000 MFI at 100-300 nM
Experimental: (§1) The secondary antibody (AF647 goat Anti-Human) was used for detection by flow cytometry. Binding EC50 was determined using four-parameter logistic (4PL) non-linear regression.

[3] = target: T1, Trop-2; assay: flow cytometry on SiHa cells, AF647 goat anti-human secondary, 4PL fit; curve still rising (about 89,000 MFI) at the highest concentration, 300 nM
Experimental: as §1

[4] = target: T1, Trop-2; assay: flow cytometry on Capan-2 cells, AF647 goat anti-human secondary, 4PL fit; curve reaches about 1,720,000 MFI at 300 nM and starts to flatten
Experimental: as §1

[5] = target: T1, Trop-2; assay: flow cytometry on BxPC-3 cells, AF647 goat anti-human secondary, 4PL fit; curve still rising (about 3,500,000 MFI) at the highest concentration, 300 nM
Experimental: as §1

[6] = target: T2, human Dectin-1 isoform A (human, UniProt Q9BXN2 1-247); assay: flow cytometry on HEK Blue Dectin 1a cells (MFI)
T2 construct: also called hDectin-1a; Dectin-1 on HEK-Blue hDectin-1a cells
T2 sequence: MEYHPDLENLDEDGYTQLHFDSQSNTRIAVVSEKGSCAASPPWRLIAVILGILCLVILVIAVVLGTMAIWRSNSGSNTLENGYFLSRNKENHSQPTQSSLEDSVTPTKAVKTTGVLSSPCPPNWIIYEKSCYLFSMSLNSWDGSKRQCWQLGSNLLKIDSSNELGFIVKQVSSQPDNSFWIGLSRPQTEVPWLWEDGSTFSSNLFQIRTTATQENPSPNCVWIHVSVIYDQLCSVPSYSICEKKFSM

[7] = target: T2, human Dectin-1 isoform A; assay: flow cytometry on HEK293F hDectin-1a FL cells (summary table)
Experimental: (§2) Binding of Dectin-1 antibodies to Dectin-1 expressing cells Dectin-1 expressing cells (HEK Blue hDectin-1-a, HEK Blue hDectin-1-b, HEK293F hDectin-1 a FL, human monocytes or cyno monocytes) were plated at 1×10⁵-2×10⁵ cells per well in non-tissue culture treated, 96 well V bottom plates. Additionally, human monocytes were incubated in human FcgR blocking antibody (Biolegend, San Diego, CA) for 10 minutes at room temperature to reduce binding of the antibodies to the Fc receptor.
(§3) For detection of mouse primary antibodies, the cells were incubated with a fluorescently labeled AF647 anti-mouse Fc-specific secondary antibody (Jackson Immuno). […] Data acquisition was performed using a CytoFlex flow cytometer (Beckman Coulter, Atlanta, GA) and analyzed using Graphpad Prism 8.4.

[8] = target: T2, human Dectin-1 isoform A; assay: flow cytometry on HEK-Blue hDectin-1a cells
Experimental: as §2, §3

[9] = target: T3, human Dectin-1 isoform B (human, UniProt Q9BXN2 1-247); assay: flow cytometry on HEK-Blue hDectin-1b cells
T3 construct: also called hDectin-1b; Dectin-1 on HEK Blue hDectin-1-b cells
T3 sequence: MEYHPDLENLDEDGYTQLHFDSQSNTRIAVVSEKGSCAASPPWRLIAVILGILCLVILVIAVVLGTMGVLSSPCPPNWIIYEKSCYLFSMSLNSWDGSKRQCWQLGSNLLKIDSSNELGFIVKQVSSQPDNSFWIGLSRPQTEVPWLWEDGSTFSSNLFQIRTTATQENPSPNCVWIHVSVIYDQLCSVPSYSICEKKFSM
Experimental: as §2, §3

[10] = target: T4, cynomolgus monkey Dectin-1 expressed on monocytes (cynomolgus monkey, UniProt A0A2K5UXY6 35-281); assay: flow cytometry, cynomolgus monocytes
T4 construct: whole, on cells; also called cynomolgus Dectin-1; cyno Dectin-1
T4 sequence: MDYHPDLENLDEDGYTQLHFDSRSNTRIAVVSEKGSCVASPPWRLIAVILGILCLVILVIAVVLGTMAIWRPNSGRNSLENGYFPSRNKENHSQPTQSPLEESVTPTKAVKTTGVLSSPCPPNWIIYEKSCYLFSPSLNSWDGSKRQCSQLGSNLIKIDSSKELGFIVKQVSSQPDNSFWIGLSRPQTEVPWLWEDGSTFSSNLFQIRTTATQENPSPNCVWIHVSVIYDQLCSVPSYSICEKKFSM
Experimental: as §2, §3
The binding was assessed by flow cytometry analysis of cynomolgus monkey monocytes derived from PBMCs.

[11] = target: T3, human Dectin-1 isoform B; assay: flow cytometry on HEK-Blue hDectin-1b cells (summary table)
Experimental: as §2, §3

[12] = target: T2, human Dectin-1 isoform A; assay: flow cytometry on HEK-Blue hDectin-1a cells (summary table)
Experimental: as §2, §3

[13] = target: T2, human Dectin-1 isoform A; assay: flow cytometry on HEK293F hDectin-1a FL cells
Experimental: as §2, §3

[14] = target: T5, Nectin-4 (UniProt Q96NY8 32-510, limits assumed); assay: flow cytometry on Nectin-4-expressing A431 cells (lower panel), AF647 goat anti-human IgG secondary, 4PL fit; curve still rising (about 92,000 MFI) at 300 nM, no plateau
T5 construct: whole, on cells; also called PVRL4; Nectin-4 on A431 cells
T5 sequence (looked up): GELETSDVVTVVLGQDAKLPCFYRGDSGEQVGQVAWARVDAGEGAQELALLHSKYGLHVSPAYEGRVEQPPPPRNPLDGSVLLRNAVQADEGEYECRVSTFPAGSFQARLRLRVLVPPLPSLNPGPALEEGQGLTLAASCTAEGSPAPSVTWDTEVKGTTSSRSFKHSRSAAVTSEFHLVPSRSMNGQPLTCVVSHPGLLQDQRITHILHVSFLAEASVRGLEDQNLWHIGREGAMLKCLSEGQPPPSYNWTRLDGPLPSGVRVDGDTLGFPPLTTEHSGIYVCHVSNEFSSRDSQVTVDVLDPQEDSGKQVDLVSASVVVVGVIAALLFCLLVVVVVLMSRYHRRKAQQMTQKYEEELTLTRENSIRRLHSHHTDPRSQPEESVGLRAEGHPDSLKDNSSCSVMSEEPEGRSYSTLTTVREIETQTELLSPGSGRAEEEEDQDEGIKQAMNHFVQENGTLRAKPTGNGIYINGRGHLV
Experimental: The secondary antibody (AF647 goat Anti-human IgG) was used for detection by flow cytometry. Binding EC50 values were determined using four parameter logistic (4PL) non-linear regression.

[15] = target: T2, human Dectin-1 isoform A; assay: flow cytometry, HEK-Blue hDectin-1a cells
Experimental: as §2, §3

B1: 2M24/Trop-2 hIgG1 bispecific antibody (bispecific antibody, V domains shown)
VH 1: QVQLVQSGAEVKKPGASVKVSCKSSGYTFTDYYIHWVRQAPGQGLEWMGWINPNSGDTNYAQKFQGRITMTRDTSISTAYLELSRLRSDDTAVFYCARNSGSYSFGYWGQGTLVTVSS
VL 1: DIQMTQSPSSVSASVGDRVTITCRASQGISSWLAWYQQKPGKAPKLLIFGASSLQSGVPSRFSGSGSGTDFTLTVSSLQPEDFATYYCQQAYSFPFTFGPGTKVDIE
VH 2: QVQLQQSGSELKKPGASVKVSCKASGYTFTNYGMNWVKQAPGQGLKWMGWINTYTGEPTYTDDFKGRFAFSLDTSVSTAYLQISSLKADDTAVYFCARGGFGSSYWYFDVWGQGSLVTVSS
VL 2: DIQLTQSPSSLSASVGDRVSITCKASQDVSIAVAWYQQKPGKAPKLLIYSASYRYTGVPDRFSGSGSGTDFTLTISSLQPEDFAVYYCQQHYITPLTFGAGTKVEIK
notes: human IgG1; also called anti-Dectin-1 (2M24)/anti-Trop-2 bispecific antibody
Work on B1 yielded an EC50 [1] of 9.04 nM, an EC50 [2] of 26.2 nM and an EC50 [3] of 77.4 nM. It also gave an EC50 [4] of 59.4 nM, an EC50 [5] of 348 nM and an EC50 [6] of 0.958 nM.

B2: anti-human Dectin-1 antibody clone 2M24 (mIgG1) (antibody, V domains shown)
VH: QVQLVQSGAEVKKPGASVKVSCKSSGYTFTDYYIHWVRQAPGQGLEWMGWINPNSGDTNYAQKFQGRITMTRDTSISTAYLELSRLRSDDTAVFYCARNSGSYSFGYWGQGTLVTVSS
VL: DIQMTQSPSSVSASVGDRVTITCRASQGISSWLAWYQQKPGKAPKLLIFGASSLQSGVPSRFSGSGSGTDFTLTVSSLQPEDFATYYCQQAYSFPFTFGPGTKVDIE
notes: hybridoma antibody with human variable and mouse constant domains (mIgG1); also called 2M24 clone; mIgG1 2M24
B2 gave an EC50 [7] of 1.1 nM, an EC50 [8] of 0.4 nM and an EC50 [9] of 1 nM. For the same binder, the EC50 [10] was 0.3 nM, the EC50 [11] was 1 nM and the EC50 [12] was 0.4 nM. For the same binder, the EC50 [13] was 1.1 nM.

B3: 2M24/Nectin-4 hIgG1 bispecific antibody (bispecific antibody, V domains shown)
VH 1: QVQLVQSGAEVKKPGASVKVSCKSSGYTFTDYYIHWVRQAPGQGLEWMGWINPNSGDTNYAQKFQGRITMTRDTSISTAYLELSRLRSDDTAVFYCARNSGSYSFGYWGQGTLVTVSS
VL 1: DIQMTQSPSSVSASVGDRVTITCRASQGISSWLAWYQQKPGKAPKLLIFGASSLQSGVPSRFSGSGSGTDFTLTVSSLQPEDFATYYCQQAYSFPFTFGPGTKVDIE
VH 2: EVQLVESGGGLVQPGGSLRLSCAASGFTFSSYNMNWVRQAPGKGLEWVSYISSSSSTIYYADSVKGRFTISRDNAKNSLSLQMNSLRDEDTAVYYCARAYYYGMDVWGQGTTVTVSS
VL 2: DIQMTQSPSSVSASVGDRVTITCRASQGISGWLAWYQQKPGKAPKFLIYAASTLQSGVPSRFSGSGSGTDFTLTISSLQPEDFATYYCQQANSFPPTFGGGTKVEIK
notes: human IgG1; DuetMab mutations F126C and C220V (heavy), S121C and C214V (light)
B3 gave an EC50 [14] of roughly 32 nM.

B4: fully human 2M24 anti-Dectin-1 antibody (hIgG4) (antibody, V domains shown)
VH: QVQLVQSGAEVKKPGASVKVSCKSSGYTFTDYYIHWVRQAPGQGLEWMGWINPNSGDTNYAQKFQGRITMTRDTSISTAYLELSRLRSDDTAVFYCARNSGSYSFGYWGQGTLVTVSS
VL: DIQMTQSPSSVSASVGDRVTITCRASQGISSWLAWYQQKPGKAPKLLIFGASSLQSGVPSRFSGSGSGTDFTLTVSSLQPEDFATYYCQQAYSFPFTFGPGTKVDIE
notes: human IgG4; also called 2M24 (hIgG4); hIgG4 2M24
For B4, the EC50 [15] was 1.6 nM.
